Measured values as given in patent US20260001934A1.

Key:
α65P AChR.CD8H.BBz CAAR [1] = biological target: α65P AChR.CD8H.BBz CAAR
α211.GS.BBz CAAR [2] = biological target: α211.GS.BBz CAAR
α210.GS.BBz CAAR [3] = biological target: α210.GS.BBz CAAR
α39P AChR.CD8H.BBz CAAR [4] = biological target: α39P AChR.CD8H.BBz CAAR
α208.GS.BBz [5] = test: flow cytometry, mAb 210 plus secondary IgG-APC on lentivirally transduced primary human T cells, day 5; the same gate on NTD cells reads 0.20; the filing says this CAAR is not surface-expressed, so the low value shows absent target and not lack of affinity
α208.GS.BBz [6] = test: flow cytometry, mAb 210 plus anti-rat IgG-APC on transiently transfected 293T cells, day 2; non-transfected 293T reads 0%; the filing says this CAAR is not expressed on the cell surface, so the low value shows absent target and not lack of affinity
α211.GS.BBz CAAR [7] = test: flow cytometry, mAb 210 plus secondary IgG-APC on lentivirally transduced primary human T cells, day 5; the same gate on NTD cells reads 0.20
α210.GS.BBz CAAR [8] = test: as above
α39P AChR.CD8H.BBz CAAR [9] = test: flow cytometry, mAb 210 staining of lentivirally transduced Jurkat cells, day 3; the same gate on NTD cells reads 0.43
α65P AChR.CD8H.BBz CAAR [10] = test: as above
α211.GS.BBz CAAR [11] = test: flow cytometry, mAb 210 plus anti-rat IgG-APC on transiently transfected 293T cells, day 2; non-transfected 293T reads 0%
α210.GS.BBz CAAR [12] = test: as above
α39P AChR.CD8H.BBz CAAR [13] = test: flow cytometry, mAb 210 staining of lentivirally transduced primary human CD3+ T cells, day 5; the same gate on NTD cells reads 0.32
α65P AChR.CD8H.BBz CAAR [14] = test: as above
α39P AChR.CD8H.BBz CAAR [15] = biological target: α39P AChR.CD8H.BBz CAAR; remark: listed apart in the source
α208.GS.BBz [16] = biological target: α208.GS.BBz
α211.GS.BBz CAAR [17] = biological target: α211.GS.BBz CAAR; remark: listed apart in the source
α210.GS.BBz CAAR [18] = biological target: α210.GS.BBz CAAR; remark: listed apart in the source
α65P AChR.CD8H.BBz CAAR [19] = biological target: α65P AChR.CD8H.BBz CAAR; remark: listed apart in the source

α39P AChR.CD8H.BBz CAAR, sequence (chain, as listed by the source): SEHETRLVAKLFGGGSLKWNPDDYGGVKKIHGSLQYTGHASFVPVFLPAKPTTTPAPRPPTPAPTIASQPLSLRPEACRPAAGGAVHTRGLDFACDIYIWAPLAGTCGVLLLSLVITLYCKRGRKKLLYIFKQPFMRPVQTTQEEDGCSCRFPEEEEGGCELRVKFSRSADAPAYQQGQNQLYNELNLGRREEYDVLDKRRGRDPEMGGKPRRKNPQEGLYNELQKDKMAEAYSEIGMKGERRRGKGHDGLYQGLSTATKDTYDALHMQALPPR

mAb 192 anti-AChR B cell receptor expressed on Nalm6 cells (antibody)
% GFP+ among CD3+-gated α65P CAAR Jurkat NFAT-GFP cells after 12 h co-culture, lower histogram (% (unit not given; gate frequency)) (α65P AChR.CD8H.BBz CAAR [1]): 41.4
% of all co-cultured cells in the CD3+ GFP+ quadrant, upper dot plot, upper right (% (unit not given; quadrant frequency)) (α65P AChR.CD8H.BBz CAAR [1]): 5.96
% GFP+ AChR CAAR Jurkat NFAT-GFP cells (CD3+ gate) after 12 h co-culture (α211.GS.BBz CAAR [2]): 91.4%
% GFP+ AChR CAAR Jurkat NFAT-GFP cells (CD3+ gate) after 12 h co-culture (α210.GS.BBz CAAR [3]): 89.5%
% GFP+ among CD3+-gated α39P CAAR Jurkat NFAT-GFP cells after 12 h co-culture, lower histogram (Nalm6 control: 4.1) (% (unit not given; gate frequency)) (α39P AChR.CD8H.BBz CAAR [4]): 6.23
% of all co-cultured cells in the CD3+ GFP+ quadrant, upper dot plot, upper right (Nalm6 control: 1.52) (% (unit not given; quadrant frequency)) (α39P AChR.CD8H.BBz CAAR [4]): 5.44

anti-AChR alpha subunit monoclonal antibody 210
% of cells in the mAb 210-positive gate (% (unit not given; gate frequency)) (α208.GS.BBz [5]): 1.14
% AChR CAAR surface-positive 293T cells (α208.GS.BBz [6]): 3.91%
% of cells in the mAb 210-positive gate (% (unit not given; gate frequency)) (α211.GS.BBz CAAR [7]): 63.6
% of cells in the mAb 210-positive gate (% (unit not given; gate frequency)) (α210.GS.BBz CAAR [8]): 41.3
% of cells in the mAb 210-positive gate (% (unit not given; gate frequency)) (α39P AChR.CD8H.BBz CAAR [9]): 68.5
% of cells in the mAb 210-positive gate (% (unit not given; gate frequency)) (α65P AChR.CD8H.BBz CAAR [10]): 68.8
% AChR CAAR surface-positive 293T cells (α211.GS.BBz CAAR [11]): 17.1%
% AChR CAAR surface-positive 293T cells (α210.GS.BBz CAAR [12]): 26.3%
% of cells in the mAb 210-positive gate (% (unit not given; gate frequency)) (α39P AChR.CD8H.BBz CAAR [13]): 53.4
% of cells in the mAb 210-positive gate (% (unit not given; gate frequency)) (α65P AChR.CD8H.BBz CAAR [14]): 13.1

mAb 195 anti-AChR B cell receptor expressed on Nalm6 cells (antibody)
% GFP+ among CD3+-gated α65P CAAR Jurkat NFAT-GFP cells after 12 h co-culture, lower histogram (% (unit not given; gate frequency)) (α65P AChR.CD8H.BBz CAAR [1]): 70.5
% of all co-cultured cells in the CD3+ GFP+ quadrant, upper dot plot, upper right (% (unit not given; quadrant frequency)) (α65P AChR.CD8H.BBz CAAR [1]): 6.95
% GFP+ AChR CAAR Jurkat NFAT-GFP cells (CD3+ gate) after 12 h co-culture (α211.GS.BBz CAAR [2]): 94.6%
% GFP+ AChR CAAR Jurkat NFAT-GFP cells (CD3+ gate) after 12 h co-culture (α210.GS.BBz CAAR [3]): 91.7%
% GFP+ among CD3+-gated α39P CAAR Jurkat NFAT-GFP cells after 12 h co-culture, lower histogram (Nalm6 control: 4.1) (% (unit not given; gate frequency)) (α39P AChR.CD8H.BBz CAAR [4]): 68.6
% of all co-cultured cells in the CD3+ GFP+ quadrant, upper dot plot, upper right (Nalm6 control: 1.52) (% (unit not given; quadrant frequency)) (α39P AChR.CD8H.BBz CAAR [4]): 17.8

mAb 35 surface anti-AChR B cell receptor on TIB-175 hybridoma cells (antibody)
% GFP+ CAAR Jurkat NFAT-GFP cells after 12 h co-culture with TIB-175 (NTD Jurkat in the same figure: 4.1) (% (unit not given; gate frequency)) (α39P AChR.CD8H.BBz CAAR [15]): 53.7
% GFP+ Jurkat reporter cells (CD3+ gate) after 12 h co-culture with TIB-175; the construct is a negative control that is not on the cell surface (α208.GS.BBz [16]): 2.88%
% GFP+ AChR CAAR Jurkat reporter cells (CD3+ gate) after 12 h co-culture with TIB-175 (α211.GS.BBz CAAR [17]): 55.7%
% GFP+ AChR CAAR Jurkat reporter cells (CD3+ gate) after 12 h co-culture with TIB-175 (α210.GS.BBz CAAR [18]): 53%
% GFP+ CAAR Jurkat NFAT-GFP cells after 12 h co-culture with TIB-175 (NTD Jurkat in the same figure: 0.81) (% (unit not given; gate frequency)) (α65P AChR.CD8H.BBz CAAR [19]): 69
